The values that follow come from PMC8611094, “RNA G-quadruplex structures control ribosomal protein production”.

As a reminder, the Kd is a measure of binding affinity in units of concentration.

In the data set the target is DDX3X (UniProt O00571 1-662). In words: ELISA; ELISA performed as in Zyner et al. (ref 43); buffer, salt, pH and temperature not given in the material. To be noted: protein: commercial; tags: FLAG; label: 5' biotin; intramolecular G4. A general note: ELISA stands for enzyme-linked immunosorbent assay.
Chain of DDX3X (O00571 whole entry): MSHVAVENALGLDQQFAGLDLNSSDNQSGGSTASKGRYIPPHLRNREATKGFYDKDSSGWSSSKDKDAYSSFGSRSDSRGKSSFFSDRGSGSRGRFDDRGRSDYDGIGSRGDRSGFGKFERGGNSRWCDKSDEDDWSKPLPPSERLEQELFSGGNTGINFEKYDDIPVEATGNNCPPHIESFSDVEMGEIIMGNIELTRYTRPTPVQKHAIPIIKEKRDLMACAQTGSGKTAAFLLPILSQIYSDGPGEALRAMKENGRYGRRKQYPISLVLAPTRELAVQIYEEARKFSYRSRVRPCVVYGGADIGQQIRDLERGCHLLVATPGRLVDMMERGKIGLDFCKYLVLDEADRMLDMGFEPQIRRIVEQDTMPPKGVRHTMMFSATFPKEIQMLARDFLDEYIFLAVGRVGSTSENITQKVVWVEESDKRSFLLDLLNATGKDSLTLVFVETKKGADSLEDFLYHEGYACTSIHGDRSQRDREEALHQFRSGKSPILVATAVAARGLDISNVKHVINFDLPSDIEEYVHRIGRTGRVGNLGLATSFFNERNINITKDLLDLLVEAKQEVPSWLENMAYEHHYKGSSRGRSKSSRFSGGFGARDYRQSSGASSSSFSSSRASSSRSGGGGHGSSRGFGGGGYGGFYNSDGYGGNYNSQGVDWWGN

Turning to UGUGGGAGGGGCGGGUCUGGGUGC (structured_RNA) [NRAS G4], the Kd stood at 18 nM.
